Assay results as given in paper PMC11623273.
pKd: −log10 of the molar value.

Target: Fab fragment of neutralizing antibody HCV1
Sequence (heavy, as listed by the source, chain 1 of 2): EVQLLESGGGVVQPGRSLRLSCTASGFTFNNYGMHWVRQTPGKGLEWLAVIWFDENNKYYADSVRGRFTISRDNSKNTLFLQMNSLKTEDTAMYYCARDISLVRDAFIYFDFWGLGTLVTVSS
Sequence (light, as listed by the source, chain 2 of 2): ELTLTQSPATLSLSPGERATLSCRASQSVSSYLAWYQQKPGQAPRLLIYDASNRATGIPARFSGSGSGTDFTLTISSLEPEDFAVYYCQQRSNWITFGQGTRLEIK

Sequence of soluble HCV E2 ectodomain (sE2) (domain or fragment) (Q99IB8 384-719): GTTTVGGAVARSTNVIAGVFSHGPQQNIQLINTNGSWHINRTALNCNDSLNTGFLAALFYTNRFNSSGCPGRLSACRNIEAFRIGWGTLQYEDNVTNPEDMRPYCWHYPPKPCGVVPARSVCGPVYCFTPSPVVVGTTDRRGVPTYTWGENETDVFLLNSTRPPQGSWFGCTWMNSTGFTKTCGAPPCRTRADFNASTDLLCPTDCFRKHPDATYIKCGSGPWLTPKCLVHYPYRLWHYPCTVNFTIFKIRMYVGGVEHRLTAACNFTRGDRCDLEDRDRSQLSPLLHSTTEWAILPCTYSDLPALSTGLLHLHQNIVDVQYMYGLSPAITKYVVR

Substance: soluble HCV E2 ectodomain (sE2) (domain or fragment)
- pKd: 6.53
- koff: 0.00435 s⁻¹
- kon: 14800 M⁻¹ s⁻¹
